Data as given in the supplement of paper PMC10724198.
± gives the standard deviation of the averaged measurements.

Legend:
Saccharomyces cerevisiae [1] = test: protein stability index of tFT-peptide fusion (C-terminal peptide) (PSI (0-1 scale)); higher = more stable (slower turnover)
Procedure: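 MPS profiling in S. cerevisiae of the tFT-X12 degron library: putative degron peptides plus stable controls, 12 aa, fused to the C-terminus of a sfGFP-mCherry timer. Cells are FACS-sorted into 8 mCherry/sfGFP bins and deep-sequenced. PSI runs from 0 (unstable) to 1 (stable). Backgrounds are wild type, das1Δ and doa10Δ at 30 °C, and wild type, das1Δ, cdc34-1 and cdc53-1 at 37 °C; 2-3 technical replicates each.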

Saccharomyces cerevisiae [2] = test: as above; conditions: genetic background: wild type; temperature: 30 C
[3] = genetic background: cdc34-1, temperature: 37 C
[4] = genetic background: cdc53-1, temperature: 37 C
[5] = genetic background: das1 deletion, temperature: 30 C
[6] = genetic background: das1 deletion, temperature: 37 C
[7] = genetic background: doa10 deletion, temperature: 30 C
[8] = genetic background: wild type, temperature: 30 C
[9] = genetic background: wild type, temperature: 37 C
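Further: PSI is a weighted mean of sequencing reads over stability bins, variants kept only with over 10 reads, mCherry proximal and sfGFP distal, peptide attached via GGGS linker.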

Row | Sequence | protein stability index (Saccharomyces cerevisiae [1]; [3]) | protein stability index (Saccharomyces cerevisiae [1]; [4]) | protein stability index (Saccharomyces cerevisiae [1]; [5]) | protein stability index (Saccharomyces cerevisiae [1]; [6]) | protein stability index (Saccharomyces cerevisiae [1]; [7]) | protein stability index (Saccharomyces cerevisiae [1]; [8]) | protein stability index (Saccharomyces cerevisiae [1]; [9]) | protein stability index (Saccharomyces cerevisiae [2])
1 | GWWCGIGVAVSV | 0.432 ± 0.039 | 0.461 ± 0.039 | 0.337 ± 0.03 | 0.5114 ± 0.0051 | 0.292 ± 0.0069 | 0.339 ± 0.027 | 0.477 ± 0.01 | 0.464 ± 0.015
2 | RLFIIYLLNIQG | 0.37 ± 0.052 | 0.5289 ± 0.0034 | 0.311 ± 0.022 | 0.544 ± 0.022 | 0.263 ± 0.0062 | 0.305 ± 0.047 | 0.515 ± 0.022 | 0.407 ± 0.019
3 | SVLVWFLVFLVW | 0.209 ± 0.0046 | 0.235 ± 0.02 | 0.223 ± 0.028 | 0.3733 ± 0.0037 | 0.218 ± 0.019 | 0.211 ± 0.026 | 0.321 ± 0.042 | 0.315 ± 0.012
4 | RRVRVVCVIVAA | 0.286 ± 0.0078 | 0.373 ± 0.009 | 0.238 ± 0.041 | 0.4735 ± 0.0028 | 0.189 ± 0.0071 | 0.221 ± 0.03 | 0.443 ± 0.025 | 0.373 ± 0.071
5 | LLCLCSLPVFAS | 0.317 ± 0.014 | 0.319 ± 0.029 | 0.26 ± 0.046 | 0.4118 ± 0.0028 | 0.223 ± 0.009 | 0.27 ± 0.018 | 0.368 ± 0.0076 | 0.356 ± 0.016
6 | FFVEKRVFFGII | 0.604 ± 0.017 | 0.733 ± 0.015 | 0.593 ± 0.026 | 0.738 ± 0.029 | 0.197 ± 0.013 | 0.242 ± 0.015 | 0.408 ± 0.018 | 0.369 ± 0.009
7 | SPSTPQALSNFS | 0.679 ± 0.0097 | 0.748 ± 0.015 | 0.657 ± 0.032 | 0.7376 ± 0.0054 | 0.664 ± 0.022 | 0.663 ± 0.025 | 0.715 ± 0.027 | 0.715 ± 0.038
8 | TVRVWPRNLWFS | 0.519 ± 0.048 | 0.677 ± 0.017 | 0.639 ± 0.021 | 0.7273 ± 0.0018 | 0.111 ± 0.0029 | 0.111 ± 0.021 | 0.235 ± 0.031 | 0.176 ± 0.021
9 | GVCLGFICVGFC | 0.494 ± 0.028 | 0.55 ± 0.0067 | 0.359 ± 0.031 | 0.576 ± 0.032 | 0.343 ± 0.029 | 0.362 ± 0.026 | 0.522 ± 0.0075 | 0.444 ± 0.018
10 | PLSPTNLSRLLS | 0.658 ± 0.034 | 0.7642 ± 0.0043 | 0.651 ± 0.012 | 0.744 ± 0.0077 | 0.1987 ± 0.0011 | 0.234 ± 0.037 | 0.526 ± 0.033 | 0.339 ± 0.015
11 | TVRLPLILPCVL | 0.5752 ± 0.0049 | 0.573 ± 0.031 | 0.421 ± 0.028 | 0.5669 ± 0.0053 | 0.414 ± 0.0034 | 0.42 ± 0.025 | 0.55 ± 0.013 | 0.4884 ± 0.0042
12 | PPTLLPPLHPAP | 0.681 ± 0.056 | 0.725 ± 0.0045 | 0.663 ± 0.011 | 0.7217 ± 0.005 | 0.666 ± 0.028 | 0.688 ± 0.038 | 0.731 ± 0.023 | 0.64 ± 0.23
13 | VSCLDLCFVISR | 0.647 ± 0.041 | 0.681 ± 0.022 | 0.503 ± 0.034 | 0.66874 ± 0.00016 | 0.528 ± 0.029 | 0.514 ± 0.025 | 0.626 ± 0.018 | 0.437 ± 0.013
14 | CGGLFDVALGVG | 0.457 ± 0.031 | 0.5096 ± 0.0026 | 0.449 ± 0.01 | 0.522 ± 0.011 | 0.477 ± 0.021 | 0.468 ± 0.023 | 0.516 ± 0.0067 | 0.471 ± 0.027
15 | CILYLSWIIFRA | 0.161 ± 0.037 | 0.192 ± 0.011 | 0.198 ± 0.041 | 0.343 ± 0.0091 | 0.213 ± 0.034 | 0.174 ± 0.028 | 0.334 ± 0.068 | 0.146 ± 0.026
16 | GVYRLCLLLLVY | 0.0836 ± 0.015 | 0.107 ± 0.03 | 0.183 ± 0.014 | 0.239 ± 0.021 | 0.158 ± 0.0074 | 0.156 ± 0.026 | 0.237 ± 0.015 | 0.218 ± 0.034
17 | VRWLVFFLFLFG | 0.501 ± 0.011 | 0.481 ± 0.013 | 0.406 ± 0.023 | 0.555 ± 0.0072 | 0.322 ± 0.0038 | 0.327 ± 0.022 | 0.497 ± 0.016 | 0.466 ± 0.074
18 | PHPPRPPCPPIL | 0.673 ± 0.041 | 0.736 ± 0.015 | 0.674 ± 0.0068 | 0.721 ± 0.0074 | 0.699 ± 0.037 | 0.678 ± 0.015 | 0.699 ± 0.0093 | 0.74 ± 0.019
19 | GKGVFGGLFFLV | 0.667 ± 0.029 | 0.741 ± 0.019 | 0.623 ± 0.027 | 0.755 ± 0.013 | 0.182 ± 0.0027 | 0.211 ± 0.021 | 0.465 ± 0.011 | 0.294 ± 0.0074
20 | VLLCASPMLAVV | 0.343 ± 0.028 | 0.356 ± 0.022 | 0.289 ± 0.024 | 0.423 ± 0.0087 | 0.249 ± 0.0027 | 0.297 ± 0.011 | 0.39 ± 0.0039 | 0.393 ± 0.03
21 | YVVYLQVCWMRS | 0.072 ± 0.025 | 0.206 ± 0.076 | 0.134 ± 0.019 | 0.23 ± 0.0061 | 0.0911 ± 0.019 | 0.104 ± 0.035 | 0.186 ± 0.024 | 0.227 ± 0.0044
22 | MLECIIHLTITR | 0.417 ± 0.072 | 0.577 ± 0.095 | 0.431 ± 0.038 | 0.507 ± 0.011 | 0.4306 ± 0.0039 | 0.444 ± 0.038 | 0.491 ± 0.019 | 0.483 ± 0.025
23 | SLARLRRICFNT | 0.632 ± 0.042 | 0.685 ± 0.0072 | 0.648 ± 0.031 | 0.719 ± 0.023 | 0.254 ± 0.011 | 0.27 ± 0.042 | 0.469 ± 0.021 | 0.3604 ± 0.0024
24 | LEGLLIRVYITF | 0.105 ± 0.034 | 0.234 ± 0.021 | 0.178 ± 0.019 | 0.3361 ± 0.00094 | 0.151 ± 0.017 | 0.173 ± 0.02 | 0.305 ± 0.0093 | 0.288 ± 0.014
25 | PPRDPGGLFTPF | 0.732 ± 0.017 | 0.7854 ± 0.0062 | 0.679 ± 0.0077 | 0.7763 ± 0.003 | 0.703 ± 0.022 | 0.674 ± 0.028 | 0.767 ± 0.039 | 0.71756 ± 0.00059
26 | VSPPPLSPPLSR | 0.677 ± 0.014 | 0.7238 ± 0.0031 | 0.6712 ± 0.0055 | 0.709 ± 0.012 | 0.686 ± 0.0078 | 0.673 ± 0.0092 | 0.688 ± 0.014 | 0.701 ± 0.0022
27 | LFFRLLCAFLFL | 0.532 ± 0.041 | 0.452 ± 0.012 | 0.499 ± 0.047 | 0.584 ± 0.017 | 0.578 ± 0.04 | 0.501 ± 0.012 | 0.5353 ± 0.0031 | 0.529 ± 0.046
28 | FFFLPLFLVLSL | 0.239 ± 0.01 | 0.158 ± 0.034 | 0.29 ± 0.025 | 0.378 ± 0.0094 | 0.486 ± 0.03 | 0.29 ± 0.03 | 0.329 ± 0.0071 | 0.363 ± 0.0047
29 | VCYLMRSLTFAY | 0.4968 ± 0.0039 | 0.546 ± 0.006 | 0.345 ± 0.029 | 0.494 ± 0.0096 | 0.319 ± 0.021 | 0.337 ± 0.024 | 0.4733 ± 0.0016 | 0.45 ± 0.0099
30 | YSIHYLRFFSLF | 0.4734 ± 0.00049 | 0.6669 ± 0.0066 | 0.6143 ± 0.0048 | 0.726 ± 0.014 | 0.0685 ± 0.011 | 0.0874 ± 0.015 | 0.0998 ± 0.011 | 0.133 ± 0.034
